In series [1] the target is T1, Zika virus envelope protein (Zika virus, UniProt A0A024B7W1 291-694). In words: bead-based fluorescence binding assay; protein on magnetic beads; Bead assay: room temperature, 1 h, envelope protein 0.15 mg/mL on magnetic beads, aptamer 3 nM-1 uM, DIW wash; binding buffer not stated (folding predicted at 140 mM Na+, 5 mM Mg2+). Sensor: ACEF 10 min, read in 1 M KCl pH 7. As to conditions: protein: commercial; label: 5' 6-FAM; stem-loops (mfold prediction).

Another series addresses hemoglobin (horse, UniProt P01958;P02062 2-142;1-146). In words: pulse voltammetry biosensor; no significant reactivity; Bead assay: room temperature, 1 h, envelope protein 0.15 mg/mL on magnetic beads, aptamer 3 nM-1 uM, DIW wash; binding buffer not stated (folding predicted at 140 mM Na+, 5 mM Mg2+). Sensor: ACEF 10 min, read in 1 M KCl pH 7. The settings on record: protein: commercial; chain copies: 2;2; stem-loops (mfold prediction).

A further series concerns the target fibrinogen (UniProt P02671;P02675;P02679 20-629;31-491;27-453). The description is as above. The settings on record: protein: commercial; chain copies: 2;2;2; stem-loops (mfold prediction).
Another series concerns the target myoglobin (horse, UniProt P68082 2-154). Described as above. As to conditions: protein: commercial; stem-loops (mfold prediction).
Series [2] deals with T1, Zika virus envelope protein. Briefly: pulse voltammetry biosensor; ACEF; read in 1 M KCl pH 7; LOD 90.1 pM; Bead assay: room temperature, 1 h, envelope protein 0.15 mg/mL on magnetic beads, aptamer 3 nM-1 uM, DIW wash; binding buffer not stated (folding predicted at 140 mM Na+, 5 mM Mg2+). Sensor: ACEF 10 min, read in 1 M KCl pH 7. As to conditions: protein: commercial; stem-loops (mfold prediction).

Series [3] has the same target. In words: EMSA (8% TBE-PAGE); Kd slightly lower than truncated aptamer, value not given; […], aptamer 3 nM-1 uM, […]; binding buffer not stated ([…], read in 1 M KCl pH 7. As to conditions: protein: commercial; stem-loops (mfold prediction).

Chain of myoglobin (P68082 2-154): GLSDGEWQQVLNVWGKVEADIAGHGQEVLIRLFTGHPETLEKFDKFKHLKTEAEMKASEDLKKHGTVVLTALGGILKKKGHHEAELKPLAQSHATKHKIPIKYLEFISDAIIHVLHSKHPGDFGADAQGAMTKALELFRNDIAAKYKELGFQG
Chain of hemoglobin (P01958 2-142, chain 1 of 2): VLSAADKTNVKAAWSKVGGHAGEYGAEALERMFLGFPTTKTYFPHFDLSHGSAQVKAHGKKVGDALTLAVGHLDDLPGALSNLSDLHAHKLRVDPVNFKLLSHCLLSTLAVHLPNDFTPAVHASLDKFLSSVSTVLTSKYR
Chain of hemoglobin (P02062 whole entry, chain 2 of 2): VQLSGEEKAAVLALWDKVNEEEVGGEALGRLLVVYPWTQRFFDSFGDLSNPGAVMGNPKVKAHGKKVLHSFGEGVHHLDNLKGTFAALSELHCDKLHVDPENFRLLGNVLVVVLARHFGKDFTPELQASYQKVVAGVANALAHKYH
Chain of fibrinogen (P02671 20-629, chain 1 of 3): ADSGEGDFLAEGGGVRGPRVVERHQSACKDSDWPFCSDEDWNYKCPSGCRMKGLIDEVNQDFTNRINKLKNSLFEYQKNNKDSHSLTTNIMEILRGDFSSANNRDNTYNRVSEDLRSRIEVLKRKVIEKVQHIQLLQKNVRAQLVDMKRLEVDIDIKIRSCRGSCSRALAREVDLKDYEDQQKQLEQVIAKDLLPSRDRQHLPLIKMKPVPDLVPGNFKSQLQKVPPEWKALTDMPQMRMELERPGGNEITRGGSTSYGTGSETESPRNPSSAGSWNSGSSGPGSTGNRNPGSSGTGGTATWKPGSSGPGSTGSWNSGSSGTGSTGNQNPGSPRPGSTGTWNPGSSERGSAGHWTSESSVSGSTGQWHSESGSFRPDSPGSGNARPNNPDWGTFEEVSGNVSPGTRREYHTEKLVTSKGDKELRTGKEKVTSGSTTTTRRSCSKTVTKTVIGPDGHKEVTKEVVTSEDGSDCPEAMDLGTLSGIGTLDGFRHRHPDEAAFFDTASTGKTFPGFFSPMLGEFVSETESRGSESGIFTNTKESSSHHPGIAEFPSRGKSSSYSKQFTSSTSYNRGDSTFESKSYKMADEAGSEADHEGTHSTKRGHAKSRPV
Chain of fibrinogen (P02675 31-491, chain 2 of 3): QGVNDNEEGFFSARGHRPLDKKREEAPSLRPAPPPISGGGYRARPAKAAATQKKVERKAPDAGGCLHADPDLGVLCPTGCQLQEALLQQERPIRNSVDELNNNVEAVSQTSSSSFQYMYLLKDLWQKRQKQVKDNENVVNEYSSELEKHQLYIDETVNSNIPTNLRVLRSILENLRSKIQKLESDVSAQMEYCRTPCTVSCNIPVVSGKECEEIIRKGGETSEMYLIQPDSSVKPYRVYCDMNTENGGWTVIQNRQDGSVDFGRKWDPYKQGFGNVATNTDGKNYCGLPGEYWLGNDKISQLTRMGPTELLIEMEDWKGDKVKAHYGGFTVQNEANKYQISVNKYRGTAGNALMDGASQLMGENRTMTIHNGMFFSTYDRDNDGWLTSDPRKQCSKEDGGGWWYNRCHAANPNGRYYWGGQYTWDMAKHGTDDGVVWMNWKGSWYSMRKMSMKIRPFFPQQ
Chain of fibrinogen (P02679 27-453, chain 3 of 3): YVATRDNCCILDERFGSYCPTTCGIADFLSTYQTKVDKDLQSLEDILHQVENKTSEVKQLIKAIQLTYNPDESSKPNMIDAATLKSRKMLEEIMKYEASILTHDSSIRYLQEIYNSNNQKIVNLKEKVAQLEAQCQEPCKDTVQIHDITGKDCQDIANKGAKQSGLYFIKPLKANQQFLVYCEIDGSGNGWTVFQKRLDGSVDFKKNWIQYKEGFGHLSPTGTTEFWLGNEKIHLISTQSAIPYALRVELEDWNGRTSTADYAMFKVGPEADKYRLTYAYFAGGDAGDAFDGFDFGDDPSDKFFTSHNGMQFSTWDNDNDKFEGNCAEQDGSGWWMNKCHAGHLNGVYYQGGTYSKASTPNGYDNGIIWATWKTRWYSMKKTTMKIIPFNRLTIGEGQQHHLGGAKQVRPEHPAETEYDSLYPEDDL

B1: truncated Zika aptamer (T-ZV apt), 5'-FAM (structured_DNA)
DNA: TGCGCACTGAACGATCCTGCGTCAAGTTCAAGGTTGTG
On to B1, for which, in series [1], the Kd was 333 ± 60.3 nM.

B2: truncated Zika aptamer (T-ZV apt), thiolated (structured_DNA)
DNA: B1 DNA
modifications: thiol (SH), end not stated
As for B2, the binding result is “no binding” with hemoglobin, “no binding” with fibrinogen, “no binding” with myoglobin and “binds” in series [2].

B3: original Zika envelope aptamer (ZV apt) (structured_DNA)
DNA: TGACACCGTACCTGCTCTAGTGCGCACTGAACGATCCTGCGTCAAGTTCAAGGTTGTGAAGCACGCCAAGGGACTAT
Take B3: in series [3], the binding result is recorded as “binds”.

One may read the Kd as the equilibrium constant for the complex coming apart.

These data come from article PMC10054023, “Fabrication of Rapid Electrical Pulse-Based Biosensor Consisting of Truncated DNA Aptamer for Zika Virus Envelope Protein Detection in Clinical Samples”.
